One experiment addresses T1, estrogen receptor (ER) (Homo sapiens, UniProt P03372).
T1 construct: expressed in transfected cells; host or cells: DU145
T1 sequence (P03372 1-595): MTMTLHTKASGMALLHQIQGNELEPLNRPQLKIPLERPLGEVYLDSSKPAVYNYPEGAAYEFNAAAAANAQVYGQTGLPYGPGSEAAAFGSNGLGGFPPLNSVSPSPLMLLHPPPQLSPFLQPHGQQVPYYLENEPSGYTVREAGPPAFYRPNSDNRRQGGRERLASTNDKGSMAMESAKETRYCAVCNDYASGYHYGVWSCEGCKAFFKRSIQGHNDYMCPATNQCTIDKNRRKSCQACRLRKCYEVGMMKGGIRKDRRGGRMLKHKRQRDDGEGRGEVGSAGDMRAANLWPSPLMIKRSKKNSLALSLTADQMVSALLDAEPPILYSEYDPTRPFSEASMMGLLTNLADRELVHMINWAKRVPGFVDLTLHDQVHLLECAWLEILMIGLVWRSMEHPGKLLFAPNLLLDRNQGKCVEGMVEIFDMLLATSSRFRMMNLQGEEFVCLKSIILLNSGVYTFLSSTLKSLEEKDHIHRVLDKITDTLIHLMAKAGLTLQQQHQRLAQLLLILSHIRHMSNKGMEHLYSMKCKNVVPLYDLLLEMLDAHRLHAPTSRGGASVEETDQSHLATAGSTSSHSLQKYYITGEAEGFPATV
Briefly: Steroid receptor transactivation, ERE-CAT reporter in DU145 cells. The settings on record: DU145. The format is cell-based.

A further experiment concerns mARt877s. Briefly: AR transactivation, transient transfection CAT reporter assay, mutant AR. The settings on record: mARt877s, DHT 10^-11 to 10^-8 M. The format is cell-based, human. For orientation: A reporter such as luciferase makes a cellular process visible.
Experiment [1] addresses T2, glucocorticoid receptor (GR) (Homo sapiens, UniProt P04150).
T2 construct: expressed in transfected cells; host or cells: DU145
T2 sequence (P04150 1-777): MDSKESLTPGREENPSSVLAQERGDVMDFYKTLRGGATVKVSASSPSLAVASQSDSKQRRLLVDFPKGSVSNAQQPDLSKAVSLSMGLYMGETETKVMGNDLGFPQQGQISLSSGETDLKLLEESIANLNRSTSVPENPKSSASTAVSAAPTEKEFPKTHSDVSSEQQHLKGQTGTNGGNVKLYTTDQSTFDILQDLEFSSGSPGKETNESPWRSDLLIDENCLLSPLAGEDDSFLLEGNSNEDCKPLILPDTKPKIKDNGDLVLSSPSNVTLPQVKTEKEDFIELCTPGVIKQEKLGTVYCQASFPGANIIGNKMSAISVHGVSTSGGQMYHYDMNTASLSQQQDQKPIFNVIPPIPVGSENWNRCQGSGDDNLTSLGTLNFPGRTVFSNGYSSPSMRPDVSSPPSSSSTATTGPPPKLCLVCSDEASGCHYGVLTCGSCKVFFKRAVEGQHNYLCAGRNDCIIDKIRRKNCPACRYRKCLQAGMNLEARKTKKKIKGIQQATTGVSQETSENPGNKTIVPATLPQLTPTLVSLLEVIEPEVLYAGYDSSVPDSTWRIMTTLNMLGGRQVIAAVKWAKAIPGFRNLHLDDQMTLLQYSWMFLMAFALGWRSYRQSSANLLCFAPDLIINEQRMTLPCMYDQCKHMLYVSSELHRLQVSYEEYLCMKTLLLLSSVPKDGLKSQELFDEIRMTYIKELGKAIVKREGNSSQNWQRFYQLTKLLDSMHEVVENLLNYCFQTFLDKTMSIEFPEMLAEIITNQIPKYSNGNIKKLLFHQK
Briefly: Steroid receptor transactivation, MMTV-CAT reporter in DU145 cells. The format is cell-based. Particulars: DU145, relative to AR.

Another experiment deals with T3, AR (Homo sapiens, UniProt P10275).
T3 sequence (P10275 1-920): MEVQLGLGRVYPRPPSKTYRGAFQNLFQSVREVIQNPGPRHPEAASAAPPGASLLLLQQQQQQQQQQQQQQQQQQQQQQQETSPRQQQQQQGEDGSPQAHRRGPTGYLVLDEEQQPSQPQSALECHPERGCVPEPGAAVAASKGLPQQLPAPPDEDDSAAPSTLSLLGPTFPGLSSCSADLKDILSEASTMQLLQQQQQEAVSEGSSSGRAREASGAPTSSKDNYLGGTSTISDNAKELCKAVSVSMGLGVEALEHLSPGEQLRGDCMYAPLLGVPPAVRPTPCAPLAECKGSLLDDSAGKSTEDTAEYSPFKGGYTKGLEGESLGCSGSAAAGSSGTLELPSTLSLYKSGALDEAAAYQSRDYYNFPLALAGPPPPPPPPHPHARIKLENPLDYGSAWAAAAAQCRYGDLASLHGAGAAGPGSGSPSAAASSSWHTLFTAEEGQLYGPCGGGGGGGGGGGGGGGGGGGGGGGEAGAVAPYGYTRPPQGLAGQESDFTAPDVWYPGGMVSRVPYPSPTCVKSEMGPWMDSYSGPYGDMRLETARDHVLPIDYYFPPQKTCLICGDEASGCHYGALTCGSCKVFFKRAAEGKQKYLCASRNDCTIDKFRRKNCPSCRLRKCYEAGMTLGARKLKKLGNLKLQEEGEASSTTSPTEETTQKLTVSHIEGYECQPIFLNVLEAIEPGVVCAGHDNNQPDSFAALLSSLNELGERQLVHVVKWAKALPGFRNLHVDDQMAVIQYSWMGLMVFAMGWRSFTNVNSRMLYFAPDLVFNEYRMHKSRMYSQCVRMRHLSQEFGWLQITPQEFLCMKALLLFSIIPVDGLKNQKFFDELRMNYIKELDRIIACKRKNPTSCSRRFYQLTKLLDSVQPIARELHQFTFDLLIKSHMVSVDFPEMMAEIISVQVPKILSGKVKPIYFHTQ
Briefly: AR transcriptional activity (MMTV-CAT) in PC3 cells.

B1: ARA55: androgen receptor coactivator, 444 aa, SEQ ID NO:4, 91% homology with mouse hic5 (protein)
chain: MPRSGAPKERPAEPLTPPPSYGHQPTGQSGESSGASGDKDHLYSTVCKPRSPKPAAPAAPPFSSSSGVLGTGLCELDRLLQELNATQFNITDEIMSQFPSSKVASGEQKEDQSEDKKRPSLPSSPSPGLPKASATSATLELDRLMASLPDFRVQNHLPASGPTQPPVVSSTNEGSPSPPEPTAKGSLDTMLGLLQSDLSRRGVPTQAKGLCGSCNKPIAGQVVTALGRAWHPEHFVCGGCSTALGGSSFFEKDGAPFCPECYFERFSPRCGFCNQPIRHKMVTALGTHWHPEHFCCVSCGEPFGDEGFHEREGRPYCRRDFLQLFAPRCQGCQGPILDNYISALSLLWHPDCFVCRECFAPFSGGSFFEHEGRPLCENHFHARRGSLCPTCGLPVTGRCVSALGRRFHPDHFACTFCLRPLTKGSFQERAGKPYCQPCFLKLFG
modifications: Homo sapien
In the case of B1, in the experiment with estrogen receptor (ER), the “effect of ARA55 on ER transcriptional activation” value is on record as “marginal effect”. In addition, in the experiment with mARt877s, the “enhancement of transactivation by ARA55” value is reported as 4–8 fold. In addition, the “enhancement of GR transcriptional activation by ARA55” value in experiment [1] is on record as “to a lesser degree”. For the same molecule, the “increase of AR transcriptional activity on transfection with exogenous ARA55” value in the experiment with AR is listed as 4 fold.

For the origin of these results see US7052908B2, “Androgen receptor coactivators” (University of Rochester, priority 1998, dated 2006).
